From the RNAGym collection of RNA variant scans (doi:10.7554/elife.80360)

B1: HDV Ribozyme (parent)
chain: GGCCGGCAUGGUCCCAGCCUCCUCGCUGGCGCCGGCUGGGCAACAUUCCGAGGGGACCGUCCCCUCGGUAAUGGCGAAUGGGACCCA

Variants of: B1
Test: self-cleavage, relative activity (ratio to wild type); higher = more cleavage; co-transcriptional

Point of comparison: C49U A71C, self-cleavage 0.641. Against it:
- U65C A83G — higher, 0.862
- U46C C84G — lower, 0.237
- G39C U79C — lower, 0.125
- U37A A71G — lower, 0.128
- A16U A71U — higher, 0.877
- C44G G52C — higher, 0.724
- C30U A56G — higher, 0.665
- C21A C66G — lower, 0
- C7U G11C — lower, 0.119
- G52U G82A — lower, 0.277
- C3U C32G — lower, 0.0769
- C57G G59A — higher, 0.997
- U37C A51C — higher, 0.966
- G38A C48A — lower, 0.121
- G5C A78G — lower, 0
- C22A G25U — lower, 0.0755
- A56U G82C — lower, 0.172
- G29A C63U — lower, 0.226
- C66G G80C — lower, 0.0959
- C22A C58G — lower, 0.38
- A16C G17C — lower, 0.266
- A43G G67A — higher, 0.804
- C41U G50A — higher, 1.01
- G39A A56G — lower, 0.509
- C15A G50C — lower, 0.404
- C3G A16U — higher, 0.655
- G38A G52U — lower, 0.245
- A16G A42U — lower, 0.396
- C15A G52C — higher, 0.655
- A45G C48U — higher, 0.978
- G1C C33U — lower, 0
- U37C A45C — lower, 0.539
- C13U C24G — lower, 0.0615
- C14U U69A — higher, 1.02
- G38C G55C — lower, 0.46
- C75U A87U — lower, 0.185
- G17C A78C — lower, 0.0755
- C58U C63G — higher, 0.831
- A43C C49U — higher, 0.684
- C18A G74C — lower, 0.0791
- C19A A43C — lower, 0.0665
- U12G A71G — lower, 0.594
- C4U G17A — lower, 0.332
- C24U C64A — higher, 0.848
- C3G G73A — lower, 0.211
- C36U A77U — lower, 0.224
- G17U C19U — lower, 0.199
- G2A C21U — lower, 0.0161
- G35A C66A — lower, 0.415
- G40U G80U — lower, 0.171
- G2U A51U — lower, 0.0799
- C61A C63G — lower, 0.499
- U27A U65A — higher, 0.95
- U9A C15G — lower, 0.499
- C7G C15U — lower, 0.0978
- C62U A87U — higher, 1.08
- G31A U46C — lower, 0.166
- G68C U69G — higher, 1.21
- G17C C63G — lower, 0.244
- G10A G82U — lower, 0.36
- G50A U65G — higher, 0.95
- C3G C33U — lower, 0.194
- G39A G76U — higher, 0.873
- C24A C58G — higher, 0.855
- G10A C33U — lower, 0.554
- G38A G39A — lower, 0.0963
- C24G G50C — lower, 0.0755
- A8U A78U — lower, 0.128
- C3U C41A — higher, 0.807
- G2C G5U — lower, 0.145
- U12A G67A — lower, 0.383
- C63G U72C — lower, 0.344
- G55A C66U — higher, 1.11
- C15U U46A — higher, 0.692
- C18A U79C — lower, 0.117
- C61A U72A — higher, 0.745
- C22U C32G — lower, 0.0941
- G6C U69C — lower, 0.172
- C7G A16G — lower, 0.0978
- A45C A51C — higher, 0.875
- C7A G55U — lower, 0.4
- G2C C85G — lower, 0.0563
- C7G U79C — lower, 0.0489
